This note sets out measurements from US6369237.

The series concerns the target T1, MutY adenine DNA glycosylase (UniProt P17802).
T1 sequence: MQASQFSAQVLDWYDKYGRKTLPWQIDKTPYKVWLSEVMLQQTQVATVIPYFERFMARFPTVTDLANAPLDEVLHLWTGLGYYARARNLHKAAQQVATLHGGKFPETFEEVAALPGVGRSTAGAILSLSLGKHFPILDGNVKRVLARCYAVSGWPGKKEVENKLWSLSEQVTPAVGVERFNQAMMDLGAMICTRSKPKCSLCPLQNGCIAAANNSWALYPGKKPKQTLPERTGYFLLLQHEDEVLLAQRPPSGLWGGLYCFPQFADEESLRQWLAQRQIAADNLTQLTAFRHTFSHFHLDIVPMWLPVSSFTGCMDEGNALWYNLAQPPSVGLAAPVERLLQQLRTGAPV
The experiment in a line: EMSA. Conditions: pyrrolidine residue lacking a base (inhibitor 1); at least 20 times higher than 2a. A general note: A gel shift assay detects complexes by their altered migration in electrophoresis.

For orientation: Kd means a measure of binding affinity in units of concentration. A higher Kd goes with lower affinity. pyrrolidine (inhibitor 1) abasic duplex: the Kd is 0.065 nM. That is a picomolar value.
